The values below come from publication PMC11187062.

What is called Kd is a measure of binding affinity in units of concentration.

The target of assay [1] is UHRF1 PHD finger PHD (Mus musculus) (UniProt Q8VDF2). As to conditions: cited from earlier work.
The target in assay [2] is UHRF1 PHD finger PHD (Homo sapiens) (UniProt Q96T88). The following applies: cited from earlier work.
The target in assay [3] is UHRF1 PHD finger PHD (Mus musculus) (UniProt Q8VDF2). The following applies: cited from earlier work. This is another data set of the same source.
Assay [4] deals with UHRF1 PHD finger PHD (Homo sapiens) (UniProt Q96T88). As to conditions: cited from earlier work. The source holds these as a separate data set.
The target in assay [5] is human UHRF1 PHD finger, residues 299-366, D334A/D337A (human) (UniProt Q96T88). Kind of assay: ITC; Microcal PEAQ-ITC, 293 K, 10 mM HEPES pH 7.5, 150 mM NaCl, 0.25 mM TCEP, one-site model; which partner was titrated is not stated; single titrations and their means. (In general: In ITC the heat of successive injections is recorded.)
In a further assay the target is hPHD D334A/D337A (human) (UniProt Q96T88). Kind of assay: ITC; Microcal PEAQ-ITC, 293 K, 10 mM HEPES pH 7.5, 150 mM NaCl, 0.25 mM TCEP; one-site model; at least three independent titrations.

Where “and” joins values, the source holds several entries; their conditions need not be identical. Equal values may be shown once. Read-outs that look alike come from different tables or passages of the source.

Chain of human UHRF1 PHD finger, residues 299-366, D334A/D337A (human) (Q96T88 299-366 D334A/D337A): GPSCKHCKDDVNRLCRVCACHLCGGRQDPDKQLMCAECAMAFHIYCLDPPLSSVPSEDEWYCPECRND
Chain of UHRF1 PHD finger PHD (Homo sapiens) (Q96T88 307-369): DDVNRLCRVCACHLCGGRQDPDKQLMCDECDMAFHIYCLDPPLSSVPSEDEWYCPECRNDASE
Chain of UHRF1 PHD finger PHD (Mus musculus) (Q8VDF2 301-374): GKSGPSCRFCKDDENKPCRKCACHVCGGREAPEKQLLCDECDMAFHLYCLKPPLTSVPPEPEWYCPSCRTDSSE
Chain of DPPA3 (Q8QZY3 whole entry): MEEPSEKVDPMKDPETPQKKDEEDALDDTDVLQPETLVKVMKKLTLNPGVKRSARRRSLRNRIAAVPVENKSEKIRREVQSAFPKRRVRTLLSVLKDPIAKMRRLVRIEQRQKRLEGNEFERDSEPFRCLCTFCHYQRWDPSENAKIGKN
Chain of PAF15 (Q15004 whole entry): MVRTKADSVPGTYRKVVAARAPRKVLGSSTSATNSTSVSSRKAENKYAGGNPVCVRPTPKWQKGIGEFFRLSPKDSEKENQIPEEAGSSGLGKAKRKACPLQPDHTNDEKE
Chain of PAF15 1-10 (Q15004 whole entry, looked up, tested part not stated): as the sequence (Q15004 whole entry) above
Chain of hPHD D334A/D337A (human) (Q96T88 299-366 D334A/D337A): as the sequence (Q96T88 299-366 D334A/D337A) above

As to DPPA3 (from UniProt Q8QZY3), the Kd in assay [1] was 0.0277 µM.

Take PAF15 1-10 (from UniProt Q15004): the equilibrium dissociation constant (Kd) in assay [2] was 2.2 µM.

PAF15 (from UniProt Q15004): the Kd in assay [3] was 3.52 µM.

As to histone H3 1-15 (from UniProt P68431), the Kd in assay [4] is 1.7 µM.

Turning to “human DPPA3, residues 81-118 (domain or fragment)”, in assay [5], the Kd was 114 µM and 91 µM and 139 µM.

Turning to “human DPPA3, residues 81–118 (recombinant) (domain or fragment)”, in the assay with hPHD D334A/D337A (human), the equilibrium dissociation constant (Kd) was above 115 µM.
